Experimental data as given in PMC5934647, “Targeting IS608 transposon integration to highly specific sequences by structure-based transposon engineering”.

Target: T1, IS608 TnpA transposase (Helicobacter pylori (IS608), UniProt Q933Z0 1-155)
T1 sequence: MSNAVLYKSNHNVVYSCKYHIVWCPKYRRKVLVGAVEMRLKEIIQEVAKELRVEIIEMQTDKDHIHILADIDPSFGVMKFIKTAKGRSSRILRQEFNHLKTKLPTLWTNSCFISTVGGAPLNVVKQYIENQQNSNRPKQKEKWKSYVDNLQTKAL
Experiment: X-ray crystallography (2.6 A); Ca2+; 2 LE29 and 2 T6' per TnpA dimer; pre-cleavage target capture complex; Crystal complex: TnpA:LE29:T6' 1:1:1.3, 20 mM Tris-HCl pH 7.5, 0.2 M NaCl, 0.2 mM TCEP, 2 mM EDTA; crystallized with 14.6% PEG 3350, 0.19 M calcium acetate; cleavage and integration assays are activity read-outs and not listed
Details: protein: recombinant; chain copies: 2; LE29 imperfect hairpin; GL of LE29 pairs with TTAC of T6', A+42 and T+43 form base triplets; 2 copies of each strand per TnpA dimer

B1: LE29 hairpin + T6' target oligo (structured_DNA)
DNA 1: AAAGCCCCTAGCTTTTAGCTATGGGGATA
DNA 2: ATTACC
binding result: binds
